experiment: soluble on expression in E. coli; label from the status in PepcDB or PDB records

Sequence	soluble on expression in E. coli
MGSDKIHHHHHHMNKQPLAFRMRPKKIEDVVGQQHLIGKGKIIWRMVQAHRLSSMILYGEPGTGKTSIASAIAGSTELSFRILNAATDGKKELQEVAEEGKMSGSVILLLDEIHRLDKTKQDFLLPHLESGRIVLIGATTENPYLSVTPAIRSRTQIFHVEALSEKDIKTAINRALSDKENGLGNYNIKLDDRAKNHLSTATNGDLRSALNGLELAVLSTKAVGKEKEIHITLPIIEETIQRKSMSGDKNGDAHYDVISAFQKSIRGSDADAGIYYLGRILEAGDLTIAARRLLVIAYEDVGLANPNAAAHAVQAVTAALQLGLPEARIPLANAVIELALSPKSNSAYGAINSAIGDIEKGNTGDVPIHLKNTRNWGKTKNQ	not soluble
HMTELLKNHVAGQWIAGTGAGITLTDPVTGVALVRVSSEGLDLARAFSFAREDGGAALRALTYAQRAARLADIVKLLQAKRGDYYAIATANSGTTRNDSAVDIDGGIFTLSYYAKLGASLGEVHALRDGSAESLSKDRSFSAQHVLSPTRGVALFINAFNFPSWGLWEKAAPALLSGVPVIVKPATATAWLTQRMVADVVDAGILPPGALSIICGSSAGLLDQIRSFDVVSFTGSADTAATLRAHPAFVQRGARLNVEADSLNSAILCADATPDTPAFDLFIKEVVREMTVKSGQKCTAIRRAFVPEAALEPVLEALKAKLAKITVGNPRNDAVRMGSLVSREQYENVLAGIAALREEAVLAYDSSAVPLIDADANIAACVAPHLFVVNDPDNATLLHDVEVFGPVASVAPYRVTTDTNALPEAHAVALARRGQGSLVASIYSNDDAHLGRLALELADSHGRVHAISPSVQHSQTGHGNVMPMSLHGGPGRAGGGEELGGLRALAFYHRRSAIQAASAAIGTLTQATHWPAA	soluble
MGLRNENGIVVYPLINGAYRVAASDNYTSNFGLEWNTFQKTQIDKFSGNTVSEERLFAQTNWQKNGLEGETILEVGSGAGRFSQIMLDHTKATLYSVDYSEAVEANYRNNGPHERFKLFQASIYELPFKQASFDRVICLGVLQHTPDFKASVKALVEMVKPGGELVIDFYPIRNVFTKVHGKYLLRPILKRVNHHRLMSLIRNNIDFLISIYTFNRRIGLGVFNRFVPICEIERTLPKGMTPEQLKEWIILDTFDMFSPEYDQPQRLSTVAKWVKEFGMADVDASWVTYHGLEHHHHHH	not soluble
MGDNLTDLPGVGPSTAEKLVEAGYIDFMKIATATVGELTDIEGISEKAAAKMIMGARDLCDLGFKSGIDLLKQRSTVWKLSTSSSELDSVLGGGLESQSVTEFAGVFGSGKTQIMHQSCVNLQNPEFLFYDEEAVSKGEVAQPKAVYIDTDGTFRPERIMQMAEHAGIDGQTVLDNTFVARAYNSDMQMLFAEKIEDLIQEGNNIKLVVIDSLTSTFRNEYTGRGKLAERQQKLGRHMATLNKLADLFNCVVLVTNQVSAKPDAFFGMAEQAIGGHIVGHAATFRFFVRKGKGDKRVAKLYDSPHLPDAEAIFRITEKGIQD	soluble
MGSDKIHHHHHHMSASLNYKSFSKEQQTMDNLEKQLICPICLEMFTKPVVILPCQHNLCRKCASDIFQASNPYLPTRGGTTMASGGRFRCPSCRHEVVLDRHGVYGLQRNLLVENIIDIYKQESTRPEKKSDQPMCEEHEEERINIYCLNCEVPTCSLCKVFGAHKDCQVAPLTHVFQRQKSELSDGIAILVGSNDRVQGVISQLEDTCKTIEECCRKQKQELCEKFDYLYGILEERKNEMTQVITRTQEEKLEHVRALIKKYSDHLENVSKLVESGIQFMDEPEMAVFLQNAKTLLKKISEASKAFQMEKIEHGYENMNHFTVNLNREEKIIREIDFYR	not soluble
MSTFKPLKTLTSRRQVLKAGLAALTLSGMSQAIAKDELLKTSNGHSKPKAKKSGGKRVVVLDPGHGGIDTGAIGRNGSKEKHVVLAIAKNVRSILRNHGIDARLTRSGDTFIPLYDRVEIAHKHGADLFMSIHADGFTNPKAAGASVFALSNRGASSAMAKYLSERENRADEVAGKKATDKDHLLQQVLFDLVQTDTIKNSLTLGSHILKKIKPVHKLHSRNTEQAAFVVLKSPSVPSVLVETSFITNPEEERLLGTAAFRQKIATAIAEGVISYFHWFDNQKAHSKKR	soluble
MSGRGKVKSEPMKVVFINTQYVETDARSFKTVVQELTGKNAIVAAGPFDSPSAFDGRCYDGGSKIGEDTRQLHGGGGGGGRMGTTTEFDRLFKEMPHMEELYKLWSEY	soluble
MGSDKIHHHHHHMARKKNTSDQSRSQAANTPIAGTYEGEYSVIELEADSYTTDGWLISINGVPSSHIVLGQPQALEFEYMRWIATGARAFIDAHQDASKLRITHLGGGACTMARYFADVYPQSRNTVVELDAELARLSREWFDIPRAPRVKIRVDDARMVAESFTPASRDVIIRDVFAGAITPQNFTTVEFFEHCHRGLAPGGLYVANCGDHSDLRGAKSELAGMMEVFEHVAVIADPPMLKGRRYGNIILMGSDTEFFSSNSTEASAITRELLGGGVPAQYKDESWVRKFASGAQARHDGVSTLQMPSDTPQHPAETPEHSNTQP	not soluble
MRILLIHSDYIEYEVKDKAIKNPEPISEEEKKGRMDEVLVAFISVEKVDETNPEEVVSKAVEEIINVASQVKAENVFVYPFAHLSSELAKPSVAQEILRKVYEGLKEKGYNVGKAPFGYYKAFKISCKGHPLAELSRTIIPEGAKEEEVPEALKKEETELVSYWYILTPEGELIEVDKFDFTGYENLRKFANYEISKSRIAEKEPPHVKLMLEHELVDYEPGSDPGNLRYYPKGRLIKSLLEQYVTEKVIEYGAMEVETPVMYDFEHPALEKYLNRFPARQYIVLSGDKKYFLRFAACFGQFLISKDAVISYRHLPLRMYELTRYSFRREKRGELSGLRRLRAFTMPDMHTLAKDLEQAKDEFKKQFKLSMEVLKGVGLTPEDYEVAIRFTEDFWKENRDFIVELVKIIGKPVLIEMWKQRFFYFILKFEFNFVDNLDKAAALSTVQIDVENAERFGIKYYDENGEEKYPLILHCSPSGAIERVMYAILEKQAKLMQEGKKPMLPLWLSPIQVRVIPVSEEYLDYALYIAGKLEGARIRVDVDDEDERLNKKIRRAEKEWIPYIVVVGAKEKESGTITVRRREDGKQYETRLEELIKEIKEKVEGFPYKPRPLPLLLSKRPKFRG	soluble
MSSFGHRAFFSCCLLLEGETLHSIKLRKEATYQPQSGWPVRWPIRYPRALPLASHVHPYHMIVKLPHPRTQPRLFLWLSLHWTGIPFLGKPGIGRNRVKSKQFSHFQQSKIKTTMRKKTTNRKQKAERCQYRLVTA	not soluble
MSLIDRFGRPLEDLRITLTHACNFECFFCHMEGEEGDNYLLSKEDILLVAKVARKFGINSVKLTGGEPTLRRDLVEIVRGLKQLGYEDVSMTTNGFLLKDLAHKLKLAGLDRINISLHAVSRDTFKKITGVDAFDRVIEGIKSAIDVGLVPVKLNFVVNRRNREEAFKFIELSQNLGVNEIHLIELHPVGLGKLAFKEHDDLREIEEYIEKISIKKLIRKKHFRPRYVLPSGLIVEVVKPYANPIFCAGCNRIRLSVDGKLKTCLYREDNVIDVLDILKGEYSEDVKEELLGRAFMIAIAIREPNFKYKIEGHHHHHH	soluble
MVMRGNKMRGDKKIFKKRVERFQELLKENNIDGAVIRTLSSFIYFTGTKWLRPSLLIPAEGEPRVLVVKGEAELFKERSWIEDVVEYQKAEELMLTVVKWIRENEMKRVGLEFGIERDAYLIFYKIFLRLNPTVEVVDILDLTMKLRMIKDEWELDNIRKAGKIALKGMRVAEEEIKPGRTELEIAAEVTRELMLNGSEDPKVYVSVTPRAHAEPFRDLKVPENGVVTVVIGTDWNHYYANMARTFIIGDPGERVKKAIEVKKEAIKLALEETKVGVPISTVEKKIEQFFKERGFGDYHLSGYTHGVGLLIEEPPIATIVVPQRAAKIQENMVLSIIHPPLMLPEGAIKYENTYIVKKDGLERVT	soluble
MNKEQLQQMRQAPGFVGALDQSGGSTPKALKAYGIQPDAYQSEEEMFDLIHQMRTRMITSPAFATGKIIGVILFERTMRGKIEGMPTADFLWEKRHIVPFLKVDKGLQDEANGVQLMKPFPELGKLCEEAVGYHVFGTKMRSVIKQANEQGIRDIVEQQFQWGKEILSHGLVPILEPEVDIHCPEKAKAEEILKRELLAQLDKMTEPVMLKITIPTVDNFYKEIIEHPMMLRVVALSGGYSREQANELLSRNHGVIASFSRALVEGLSARQTDAEFNAMLEASIEDVYQASIK	soluble

Reference: the DeepSol protein solubility set
